Columns and labels:
Assay in all cases: IEDB peptide-MHC binding, purified MHC/competitive/radioactivity; filed as Kd, often an IC50 or EC50 that approximates it; ≥ and ≤ were set here for values at or beyond the usual limits of such assays
HLA-A*33:01 = target: HLA-A*33:01
HLA-A*31:01 = target: HLA-A*31:01
HLA-A*03:01 = target: HLA-A*03:01
HLA-A*11:01 = target: HLA-A*11:01
HLA-A*68:01 = target: HLA-A*68:01
[1] = source organism: Dengue virus 3 Martinique/1243/1999
[2] = source organism: SARS coronavirus Tor2
[3] = source organism: Vaccinia virus WR
[4] = source organism: Dengue virus 1 Brazil/97-11/1997
[5] = source organism: Dengue virus 4 Philippines/H241/1956
[6] = source organism: Dengue virus 2 Jamaica/1409/1983
[7] = source organism: Dengue virus 1 Singapore/S275/1990
[8] = source organism: Lassa virus Josiah
[9] = source organism: Dengue virus 4 Dominica/814669/1981

Sequence	Kd (HLA-A*33:01; [3])	Kd (HLA-A*31:01; [3])	Kd (HLA-A*03:01; [3])	Kd (HLA-A*11:01; [3])	Kd (HLA-A*68:01; [3])	other results
AIWYMWLGAR						Kd (HLA-A*33:01; [1]): 57.3 nM; Kd (HLA-A*31:01; [1]): 42.3 nM
ALAFHLTSR						Kd (HLA-A*03:01; [1]): 34.9 nM
AQPLPQRQK						Kd (HLA-A*33:01; [2]): ≥ 77700 nM; Kd (HLA-A*31:01; [2]): ≥ 53200 nM; Kd (HLA-A*03:01; [2]): ≥ 23600 nM; Kd (HLA-A*11:01; [2]): 879 nM; Kd (HLA-A*68:01; [2]): 3030 nM
ASGNLLLDK						Kd (HLA-A*33:01; [2]): ≥ 77700 nM; Kd (HLA-A*31:01; [2]): 13500 nM; Kd (HLA-A*03:01; [2]): 694 nM; Kd (HLA-A*11:01; [2]): 29.8 nM; Kd (HLA-A*68:01; [2]): ≥ 38100 nM
ATNNVFRLK						Kd (HLA-A*33:01; [2]): 6410 nM; Kd (HLA-A*31:01; [2]): 2.57 nM; Kd (HLA-A*68:01; [2]): 11.6 nM
AVHECFVKR						Kd (HLA-A*33:01; [2]): 1270 nM; Kd (HLA-A*31:01; [2]): 39 nM; Kd (HLA-A*03:01; [2]): 3320 nM; Kd (HLA-A*11:01; [2]): 440 nM; Kd (HLA-A*68:01; [2]): 79.6 nM
AVRYYDGNIY	≥ 70000 nM	≥ 70000 nM	2500 nM	272 nM	3040 nM	
AVVADLSAR	712 nM	26.6 nM	141 nM	51.8 nM	6.45 nM	
CAGVIEYAK	1190 nM	2220 nM	988 nM	192 nM	51.1 nM	
DFRNRYEDY	96.4 nM	≥ 77900 nM	2770 nM	7930 nM	3700 nM	
DLVKSSFVK	905 nM	94.2 nM	1790 nM	127 nM	77 nM	
DLVKSYSLIR	579 nM	173 nM	≥ 10000 nM	6720 nM	1630 nM	
DTRTPRAKR						Kd (HLA-A*33:01; [4]): 29.8 nM
EATARGARR						Kd (HLA-A*33:01; [4]): 36.7 nM; Kd (HLA-A*68:01; [4]): 12.5 nM
EGAWKHAQR						Kd (HLA-A*68:01; [5]): 115 nM
EILKINSVK	549 nM	2080 nM	713 nM	1540 nM	2.64 nM	
EMGANFKAER						Kd (HLA-A*33:01; [6]): 15.5 nM
ETKITFALKK	3200 nM	8270 nM	1230 nM	93.1 nM	74.8 nM	
FINFFNLLAK	427 nM	1820 nM	8.96 nM	0.273 nM	6.53 nM	
FLYLYALIY						Kd (HLA-A*33:01; [2]): 17900 nM; Kd (HLA-A*31:01; [2]): 16900 nM; Kd (HLA-A*03:01; [2]): 6630 nM; Kd (HLA-A*11:01; [2]): 16300 nM; Kd (HLA-A*68:01; [2]): ≥ 44400 nM
FSKNILKYY	≥ 77700 nM	16300 nM	≥ 21200 nM	≥ 28900 nM	5490 nM	

Sequence	Kd (HLA-A*33:01; [3])	Kd (HLA-A*31:01; [3])	Kd (HLA-A*03:01; [3])	Kd (HLA-A*11:01; [3])	Kd (HLA-A*68:01; [3])	other results
FSKSTSPTR	387 nM	20.6 nM	≥ 42200 nM	12300 nM	9.78 nM	
FSNTILLSDK	≥ 62600 nM	1260 nM	25.5 nM	1.96 nM	100 nM	
FVKKFGLCNY	≥ 45100 nM	12200 nM	≥ 22800 nM	15100 nM	≥ 37100 nM	
GFMRFFQLLR	86.3 nM	53.7 nM	526 nM	937 nM	2410 nM	
GLAMGIMILK						Kd (HLA-A*03:01; [7]): 20.7 nM; Kd (HLA-A*11:01; [7]): 69.8 nM
GLSETGFMR	155 nM	85.5 nM	16300 nM	2710 nM	2130 nM	
GLSSRATWAK						Kd (HLA-A*03:01; [5]): 35.2 nM; Kd (HLA-A*11:01; [5]): 164 nM
GSQLAKRFSR						Kd (HLA-A*31:01; source organism: Dengue virus 3 Singapore/8120/1995): 54.4 nM
GTSNWTGNY	≥ 77700 nM	≥ 77900 nM	11.5 nM	1.06 nM	3720 nM	
GVFTTNIWLK						Kd (HLA-A*03:01; [6]): 29.3 nM; Kd (HLA-A*11:01; [6]): 40.7 nM; Kd (HLA-A*68:01; [6]): 1.45 nM
HLKVALYRR	9.72 nM	0.197 nM	1190 nM	9610 nM	67.1 nM	
HSVFKGFSDK	14600 nM	1420 nM	11.6 nM	13.5 nM	52 nM	
ICKMPLPTK						Kd (HLA-A*33:01; [8]): ≥ 47400 nM; Kd (HLA-A*31:01; [8]): 19800 nM; Kd (HLA-A*03:01; [8]): 891 nM; Kd (HLA-A*11:01; [8]): 712 nM; Kd (HLA-A*68:01; [8]): 17200 nM
IGKMFESTYR						Kd (HLA-A*33:01; [9]): 176 nM
IICEDAMYY	≥ 77700 nM	≥ 61400 nM	2360 nM	196 nM	3660 nM	
IIMRCWLCWK						Kd (HLA-A*33:01; [2]): 198 nM; Kd (HLA-A*31:01; [2]): 14.4 nM; Kd (HLA-A*03:01; [2]): 1.65 nM; Kd (HLA-A*11:01; [2]): 0.426 nM; Kd (HLA-A*68:01; [2]): 0.903 nM
ILARWGSFKK						Kd (HLA-A*03:01; [7]): 9.69 nM
ILHAYCGIK	≥ 33800 nM	2620 nM	32.8 nM	582 nM	1860 nM	
ILSYIYSEIK	≥ 70000 nM	≥ 37000 nM	38.8 nM	62.1 nM	1240 nM	
ILTYNKTSK	≥ 20100 nM	1620 nM	45.8 nM	1260 nM	442 nM	
KAKIFTPEAR						Kd (HLA-A*31:01; [9]): 2.85 nM

— the Immune Epitope Database (IEDB)
